From patent US20250223353A1 (BIOTHEUS, published 2025)

Experiments:
Test in all cases: BLI (ForteBio), PVRIG-Fc on AHQ sensor, 100 nM Fab in solution, monovalent, 1:1 model
mouse PVRIG-Fc protein = target: T1, mouse PVRIG-Fc protein (mouse)
T1 construct: not shown: Fc part
T1 chain: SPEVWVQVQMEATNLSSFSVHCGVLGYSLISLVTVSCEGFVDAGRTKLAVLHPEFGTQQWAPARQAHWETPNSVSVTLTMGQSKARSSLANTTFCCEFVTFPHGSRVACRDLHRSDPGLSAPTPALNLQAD
Protocol: (§1) Biofilm layer optical interference technology (ForteBio) was used to determine the binding and dissociation rate constant (KD) values of the antibodies and their variants or Fab fragments obtained in Example 1 to human, cynomolgus monkey and mouse PVRIG. ForteBio affinity measurement was performed according to existing methods (Este, P et al., High throughput solution-based measurement of antibody-antigen affinity and epitope binning. Mabs, 2013.5 (2): p270-8).
(§2) The antigen-loaded sensor was incubated in 100 nM Fab solution to the plateau phase, and then the sensor was transferred to an analysis buffer and incubated for at least 2 minutes for measuring dissociation rate. The kinetic analysis was performed using a 1:1 binding model.

human PVRIG-Fc protein = target: T2, human PVRIG-Fc protein (human, UniProt Q6DKI7 41-171)
T2 construct: also called PVRIG-Fc antigen (human); not shown: Fc part
T2 sequence: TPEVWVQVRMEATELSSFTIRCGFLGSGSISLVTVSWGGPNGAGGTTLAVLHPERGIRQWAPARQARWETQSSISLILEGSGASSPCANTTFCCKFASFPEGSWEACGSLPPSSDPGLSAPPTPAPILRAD
Protocol: as §1, §2

[1] = target: T3, cynomolgus monkey PVRIG-Fc protein (cynomolgus monkey, UniProt Q6DKI7 41-171 (human entry), limits assumed)
T3 construct: also called cynomolgus PVRIG-Fc protein; not shown: Fc part
T3 chain: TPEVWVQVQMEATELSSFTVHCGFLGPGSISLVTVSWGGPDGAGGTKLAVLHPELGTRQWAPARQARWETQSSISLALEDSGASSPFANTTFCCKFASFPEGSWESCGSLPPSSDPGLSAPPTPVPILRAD
Protocol: as §1, §2

B1: ADI-56127 Fab fragment (Fab, V domains shown)
VH: QVQLVQSGAEVKKPGSSVKVSCKASGGTESVDAISWVRQAPGQGLEWMGDIIPFFDTDYAQKFQGRVTITADESTSTAYMELSSLRSEDTAVYYCAREGGTSWTHFFDLWGRGTLVTVSS
VL: not shown
notes: Fab made by papain digestion of the yeast full-length IgG, purified with Kappa Select
Kd (mouse PVRIG-Fc protein): 114 nM | Kd (human PVRIG-Fc protein): 0.061 nM | Kd [1]: 0.128 nM
